Test results taken from US20030125257A1 (published 2003).
Square brackets hold non-standard residues; d marks the D form. Ends that are not written are not given here. Sta = CC(C)C[C@H](N)[C@@H](O)CC(=O)O

Target: purified full-length human BACE with six C-terminal His residues, expressed in Sf9 insect cells (human, UniProt P56817 46-501)
Test: radioligand equilibrium binding (Scatchard plot); no inhibitor

purified full-length human BACE with six C-terminal His residues, expressed in Sf9 insect cells, sequence (P56817 other isoform, or with tags, fused parts or gaps): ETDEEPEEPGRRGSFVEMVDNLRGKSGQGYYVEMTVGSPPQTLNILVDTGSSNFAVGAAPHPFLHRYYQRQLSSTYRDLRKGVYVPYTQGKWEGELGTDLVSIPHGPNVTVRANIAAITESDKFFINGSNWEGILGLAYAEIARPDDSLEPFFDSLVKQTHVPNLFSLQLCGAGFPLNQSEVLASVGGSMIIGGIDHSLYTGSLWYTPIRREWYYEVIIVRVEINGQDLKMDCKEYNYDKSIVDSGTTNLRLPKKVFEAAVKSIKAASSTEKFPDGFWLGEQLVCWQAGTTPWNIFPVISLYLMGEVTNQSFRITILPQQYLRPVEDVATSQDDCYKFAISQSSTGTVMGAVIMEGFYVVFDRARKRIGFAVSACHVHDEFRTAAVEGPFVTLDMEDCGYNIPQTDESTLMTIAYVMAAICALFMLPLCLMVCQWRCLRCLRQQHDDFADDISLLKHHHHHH

- Kd: 25 nM
Binder: EVN[Sta]VAE[Tyr(3H2)]-NH2 [tritiated Compound A (Glu-Val-Asn-Statine-Val-Ala-Glu-Tyr-NH2, iodine of Tyr(I2) exchanged for 3H)]
